{"source": "patent US9074018B2", "about": "“Reconstituted pulmonary surfactants” (CHIESI FARMACEUTICI S.p.A, priority 2012, dated 2015)", "test": "Viscosity of the surfactant preparation", "assay_type": "physicochemical", "conditions": "mixed with a phospholipid mixture consisting of DPPC:POPG 7:3 (w/w)", "text": "Advantageously the viscosity of said formulations is less than 20 centiPoise (cP), preferably less than 15 cP, upon determination with a common viscometer available on the market according to methods known in the art."}
{"sequence": "CWLCRALIKRFNRYLTPQLVCRLVLRC [ox Mini-B27, SP-B analogue of formula (III), shorter analogue of ox Mini-B(Leu)]", "values": [{"measurement": "viscosity of the preparation", "value": "viscous"}]}
